The record followed here is US10428140B2, “Anti-EphA4 antibody” (EISAI R&D MANAGEMENT CO., LTD., priority 2015, dated 2019).

For assay [1], the system named is human Eph receptor (EphA1-A8, A10, EphB1-B4, B6). The assay is described as follows: Selectivity ELISA for human Eph receptor family. It is filed as binding. The conditions noted are these: antibody 10 μg/mL. The text has this:
According to the method described in Example 1, a DNA sequence encoding the signal sequence and the extracellular region of each human Eph receptor (EphA1, EphA2, EphA3, EphA4, EphA5, EphA6, EphA7, EphA8, EphA10, EphB1, EphB2, EphB3, EphB4, and EphB6) was amplified by RT-PCR using tissue-derived total RNA and cloned into a pENTR1A vector (Invitrogen/Life Technologies) having a DNA sequence encoding a human IgG1 Fc region and histidine tag. Next, the DNA sequence encoding the signal sequence and the extracellular region of each human Eph receptor, Fc, and histidine tag was transferred to a pcDNA3.1_rfcB vector through LR reaction using Gateway System (Invitrogen/Life Technologies) to construct a vector for the expression of a protein of the extracellular region of each human Eph receptor fused with the human IgG1 Fc region and the His tag (referred to as “Eph receptor extracellular region-Fc-His protein”) (this vector is referred to as “Eph receptor extracellular region-Fc-His protein expression vector”). […]
Antibody A was evaluated for its binding activity against each human Eph receptor according to the following steps.
Each well of a 96-well plate (Nunc) was coated with a donkey anti-human IgG antibody (Jackson ImmunoResearch Laboratories). […] The absorbance at 450 nm was read using a microplate reader (PerkinElmer).
(In general: ELISA stands for enzyme-linked immunosorbent assay.)

Assay [2] has as its system mouse ES cell derived-motor neuron / variant human SOD1 (G93A)-expressing astrocyte coculture. The assay is described as follows: Motor neuron protection in in vitro ALS model derived from mouse ES cells. It is filed as cell-based. The conditions noted are these: antibody A 10, 30, 100 nM; EphA4-Fc 3, 10, 30 nM; KYL peptide 1, 3, 10 μM; 2 days. The protocol:
Mouse ES cells were maintained and cultured according to the following steps. Mouse ES cells (129×1/SvJ) cryopreserved at −80° C. were thawed in a thermostat bath and then diluted with a mouse ES cell culture medium (KnockOut(TM) DMEM (Gibco) containing 10% fetal bovine serum (FBS, Gibco), 0.1 mM β-mercaptoethanol (Gibco), 1 mM sodium pyruvate (Invitrogen), 2 mM L-glutamine (Invitrogen), 1% nonessential amino acids (Invitrogen), 100 units/mL penicillin-100 μg/mL streptomycin (Invitrogen), and 1000 units/mL ESGRO(R) leukemia inhibitory factor (Merck Millipore)) warmed to 37° C. Each cell suspension was centrifuged (1500 rpm, 3 min, room temperature), followed by the removal of the supernatant. The cells were suspended in a fresh medium, then transferred to a culture dish with feeder cells inoculated in advance, and maintained and cultured in a CO2 incubator (5% CO2, 37° C.).
Astrocytes were established from a mouse newborn and maintained and cultured according to the following steps. A two-day-old wild-type mouse newborn (C57BL/6JJmsSlc (Japan SLC)) and a hybrid mouse newborn of a wild-type mouse and a variant human SOD1 (G93A) Tg-(B6.Cg-Tg(SOD1_G93A)1Gur/J ([…])) mouse were each euthanized by inhalation anesthesia with isoflurane (Intervet) or decapitation. […]

B1: antibody A: mouse anti-EphA4 monoclonal antibody, IgG1/κ; heavy chain variable region SEQ ID NO: 11, light chain variable region SEQ ID NO: 13 (antibody, listed as Mus musculus, V domains shown)
VH: QIQLVQSGPELKKPGETVKISCKASGYTFTDYSMHWVKQAPGKGLKWMGWINTETGEPTYADDFKGRFAFSLETSASTAYLQINNLKNEDTATYFCARIPLYYYGSRYWYFDVWGAGTTVTVSS
VL: DIQMTQSPASLSVSVGETVTITCRASENIYRNLAWYQQKQGKSPQLLVYAATNLADGVPSRFSGSGSGTQYSLKINSLQSEDFGSYYCQHFWGTPWTFGGGTKLEIK
In the case of B1, in assay [1], the “binding specificity among human Eph receptor family (in words)” value is listed as “specifically had reaction activity only with human EphA4”. Further, the “suppression of motor neuron death / motor neuron protective effect (in words)” value in assay [2] was “suppressed, in a concentration-dependent manner”.
